How the values were obtained:
Conditions in all cases: protein: recombinant; tags: N-terminal His6 removed by TEV
[1] = target: T1, hTUT4 CCHC-ZnF2 (Homo sapiens, UniProt Q5TAX3 1293-1321); assay: BLI; NMR: 10 mM Tris-HCl pH 7.4, 100 mM NaCl, 0.5 mM TCEP, 10 uM ZnCl2, 25 C, 50 uM protein; BLI: streptavidin sensors, 1-8 uM protein, buffer not in material
T1 chain: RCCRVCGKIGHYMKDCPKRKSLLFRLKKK

[2] = target: T2, hTUT4 CCHC-ZnF2-3 (Homo sapiens, UniProt Q5TAX3 1293-1382); assay: BLI; affinity very similar to ZnF2; ~2-fold slower association and slightly longer lifetime (value in figure only); NMR: 10 mM Tris-HCl pH 7.4, 100 mM NaCl, 0.5 mM TCEP, 10 uM ZnCl2, 25 C, 50 uM protein; BLI: streptavidin sensors, 1-8 uM protein, buffer not in material
T2 sequence: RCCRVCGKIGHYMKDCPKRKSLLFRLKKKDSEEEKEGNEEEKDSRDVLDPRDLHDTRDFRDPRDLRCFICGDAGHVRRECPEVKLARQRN

[3] = target: T1, hTUT4 CCHC-ZnF2; assay: NMR titration (15N HSQC CSP); 10 uM ZnCl2; NMR: 10 mM Tris-HCl pH 7.4, 100 mM NaCl, 0.5 mM TCEP, 10 uM ZnCl2, 25 C, 50 uM protein; BLI: streptavidin sensors, 1-8 uM protein, buffer not in material
[4] = target: T1, hTUT4 CCHC-ZnF2; assay: NMR titration (15N HSQC CSP); 10 uM ZnCl2; protein:RNA 1:10; NMR: 10 mM Tris-HCl pH 7.4, 100 mM NaCl, 0.5 mM TCEP, 10 uM ZnCl2, 25 C, 50 uM protein; BLI: streptavidin sensors, 1-8 uM protein, buffer not in material
[5] = target: T2, hTUT4 CCHC-ZnF2-3; assay: BLI; affinity very similar to ZnF2 (value in figure only); NMR: 10 mM Tris-HCl pH 7.4, 100 mM NaCl, 0.5 mM TCEP, 10 uM ZnCl2, 25 C, 50 uM protein; BLI: streptavidin sensors, 1-8 uM protein, buffer not in material

B1: Let-7i miRNA (ssRNA)
RNA: UGAGGUAGUAGUUUGUGCUGUU
[1]
  Kd: ~4 µM
[2]
  binding result: binds

B2: CGGA RNA (ssRNA)
RNA: CGGA
[3]
  Kd: 3.7 ± 0.4 µM

B3: UUUU RNA (ssRNA)
RNA: UUUU
[4]
  binding result: no binding

B4: UUUGGA RNA (short RNA with SIA sequence) (ssRNA)
RNA: UUUGGA
[1]
  Kd: ~4 µM
[5]
  binding result: binds

From publication PMC8782169, “The distinct RNA-interaction modes of a small ZnF domain underlay TUT4(7) diverse action in miRNA regulation”
